This is an account of results in US20170369542A1 (Pieris, published 2017).

The target in test [1] is T1, synthetic non-modified human Hepcidin-25 (human, not fully specified).
T1 construct: also called hHepcidin-25; non-biotinylated human hepcidin
T1 peptide: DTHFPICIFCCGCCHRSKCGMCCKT
Nature of the test: competition ELISA: non-biotinylated human hepcidin-25 titrated against a constant concentration of mutein; free mutein detected on plate-captured biotinylated human hepcidin. The protocol:
The binding affinity of the Lcn2 muteins to non-modified hepcidin-25 in solution was evaluated in a competition ELISA approach. Therefore, a constant concentration of 1 μg/ml C-terminal biotinylated human hepcidin (Bachem AG, CH) was captured on the surface of a polystyrol plate (Greiner, GE) via Neutravidin (Thermo Scientific, 5 μg/ml, GE). In parallel a two step dilution series of non-biotinylated human hepcidin starting from 1 μM was incubated with a constant concentration of hepcidin-specific mutein for 1 h at room temperature in a non-protein binding 96 well polypropylene plate (Nunc, GE). The constant concentration of lipocalin muteins corresponds to the EC₅₀ of the respective muteins as determined in a direct ELISA as described above in this example. In the following the mixture of non-modified human hepcidin and lipocalin mutein was transferred onto the hepcidin-captured Neutravidin plate. The C-terminal biotinylated hepcidin was allowed to compete with the non-modified hepcidin for Anticalin binding for 20 min. at room temperature. During these 20 min, free lipcocalin mutein was bound to the captured hepcidin and detected via a rabbit anti-strep-tag II polyconal antibody (GenScript, USA). A goat anti-rabbit IgG-HRP conjugate (Abcam, UK) was employed as secondary detection antibody. Parallel to the competition assay, anticalin binding was determined on the same plate in a “direct” ELISA, in order to obtain a standard curve linking the RFU values to anticalin concentration. This curve was then used to standardize competition data to the level of anticalins bounds to the plate and fitted with Graphpad software. IC₅₀ values correspond to the half-maximum amount of lipocalin mutein bound to the plate.

The target of test [2] is T2, cynomolgus Hepcidin-25 (cynomolgus, UniProt A7XEI3 60-84, not fully specified).
T2 construct: mature
T2 peptide: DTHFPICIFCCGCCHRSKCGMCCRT
Nature of the test: direct ELISA on cynomolgus hep-25, mutein titrated. The protocol:
(§1) A “direct” ELISA was performed to verify the binding affinity and specificity of the selected Lcn2 muteins. Therefore, a constant concentration of 1 μg/ml C-terminal biotinylated hepcidin (Bachem AG, CH) was captured on the surface of a polystyrol plate (Greiner, GE) via Neutravidin (Thermo Scientific, 5 μg/ml). Two step dilution series of purified Lcn2 muteins were incubated with the captured hepcidin for 1 h at room temperature and detected either via the Strep-tag II using a rabbit anti-strep-tag II polyconal antibody (GenScript, USA) or by using a scaffold-specific polyclonal rabbit antibody. In both cases an anti rabbit IgG-HRP conjugate (Abcam, UK) was employed as secondary detection antibody.
(§2) The absorption ΔA at […] was measured in an ELISA reader (Tecan, GE) and the data were fitted with Graphpad Prism software (Statcom, USA).

Test [3] addresses T1, synthetic non-modified human Hepcidin-25. Briefly: cell-based or functional assay.
Test [4] addresses T3, C-terminal biotinylated human Hepcidin-25 (human, not fully specified; biotinylated via a Lysine residue coupled to the C-terminus via a Mini-PEG linker).
T3 construct: Bought from Bachem AG; Captured on plates via Neutravidin; also called C-terminal biotinylated hepcidin; C-terminal biotinylated hHepcidin
T3 peptide: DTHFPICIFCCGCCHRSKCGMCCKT
Nature of the test: direct ELISA, biotinylated hepcidin captured via Neutravidin, mutein titrated. The protocol:
as §1, §2

B1: lipocalin mutein of SEQ ID NO: 4 (designed binder)
chain: QDSTSDLIPAPPLSKVPLQQNFQDNQFHGKWYVVGVAGNEMLREDKDPLKMLATIYELKEDKSYNVTRVMFEYKKCVYLIETFVPGSQPGEFTLGTIKSVPGLTSGLVRVVSTNYNQHAMVFFKRVWQNREVFWITLYGRTKELTSELKENFIRFSKSLGLPENHIVFPVPIDQCIDG
notes: also called Lcn2 mutein
On to B1, for which, in test [1], the IC50 is 0.6 nM. Moreover, the Kd in test [2] turned out to be 2.03 nM; in test [4], 1.39 nM. The “IC50 of neutralization of hepcidin-induced (40 nM) internalization and degradation of FPN-GFP in T-REx-293 cells, GFP fluorescence by flow cytometry” value (shortened to “IC50 of neutralization … by flow cytometry”) in test [3] came out at 62 nM.

B2: lipocalin mutein of SEQ ID NO: 6 (designed binder)
chain: QDSTSDLIPAPPLSKVPLQQNFQDNQFHGKWYVVGLAGNEILREDKDPLKMWATIYELKEDKSYNVTRVQFGEKKCGYGIETFVPGSQPGEFTLGSIKSVPGGTSRLVRVVSTNYNQHAMVFFKFVWQNREVFWITLYGRTKELTSELKENFIRFSKSLGLPENHIVFPVPIDQCIDG
notes: also called Lcn2 mutein
Turning to B2, in test [1], the IC50 stood at 1.7 nM. Moreover, the Kd came out at 0.79 nM in test [2] and 0.76 nM in test [4]. Further, the “IC50 of neutralization … by flow cytometry” value in test [3] was determined as 65 nM.

B3: lipocalin mutein of SEQ ID NO: 1, linked to albumine-binding domain (ABD) (SEQ ID NO: 15) (designed binder)
chain: QDSTSDLIPAPPLSKVPLQQNFQDNQFHGKWYVVGLAGNEVLREDKDPMKMWATIYELEEDKSYNVTIVMFLAKKCEYLFQTFVPGSQPGEFTLGDIKSSPGRTSGLVRVVSTNYNQHAMVFFKVVWQNREVFWITLYGRTKELTSELKENFIRFSKSLGLPENHIVFPVPIDQCIDGSAGAVDANSLAEAKVLANRELDKYGVSDYYKNLINNAKTVEGVKALIDEILAALPSAWSHPQFEK
notes: also called ABD-fusion protein
B3 showed an IC50 in test [1] of 0.37 nM. Further, the Kd in test [2] was 0.22 nM; in test [4], 0.48 nM. In test [3], the “IC50 of neutralization … by flow cytometry” value came out at 39 nM.

B4: lipocalin mutein of SEQ ID NO: 10 (designed binder)
chain: QDSTSDLIPAPPLSKVPLQQNFQDNQFHGKWYVVGLAGNEILREDKDPMKMWATIYELKEDRSYNVTIVMFLAKKCEYLFQTFVPGSQPGEFTLGDIKSSPGRTSGLVRVVSTNYNQHAMVFFKVVWQNREVFWITLYGRTKELTPELKENFIRFSKSLGLPENHIVFPVPIDQCIDGF
notes: also called Lcn2 mutein
Molecule B4 had a half-maximal inhibitory concentration (IC50) in test [1] of 0.18 nM. Besides, the Kd is 0.82 nM in test [2] and 0.75 nM in test [4]. In addition, the “IC50 of neutralization … by flow cytometry” value in test [3] stood at 25 nM.

B5: lipocalin mutein of SEQ ID NO: 9 (designed binder)
chain: QDSTSDLIPAPPLSKVPLQQNFQDNQFHGKWYVVGLAGNEVLREDKDPMKMWATIYELKEDKSYNVTIVMSLAKKCEYLFQTFVPGSQPGEFTLGDIKSSPGRTSGLVRVVSTNYNQHAMVFFKVVWQNREVFWITLYGRTKELTSGLKENFIRFSKSLGLPENHIVFPVPIDQCIDG
notes: also called Lcn2 mutein
B5 yielded a half-inhibitory concentration (IC50) in test [1] of 0.12 nM. Besides, the Kd was determined as 1.14 nM in test [2] and 0.75 nM in test [4].

B6: lipocalin mutein of SEQ ID NO: 12 (designed binder)
chain: QDSTSDLIPAPPLSKVPLQQNFQDNQFHGKWYVVGLAGNEVLREDKDPMKMWATIYELKEDKSYNVTIVMFLAEECEYLFQTFVPGSQPGEFTLGDIKSSPGRTSGLVRVVSTNYNQHAMVFFKVVWQNREVFWITLYGRTKELTSELKKNFIRFSKSLGLPENHIVFPVPIDQCIDG
notes: also called Lcn2 mutein
B6 yielded an IC50 in test [1] of 0.17 nM. The Kd in test [2] came to 0.96 nM; in test [4], 0.64 nM.

B7: lipocalin mutein of SEQ ID NO: 11 (designed binder)
chain: QDSTSDLIPAPPLSKVPLQQNFQDNQFHGKWYVVGLAGNEILREDKDPMKMWATIYELKEDKSYNVTIVMFLAKKCEYLFQTFVPGSQPGEFTLGDIKSSPGRTSGLVRVVSTNYNQHAMVFFKVVWQNREVFWITLYGRTKELTSGLKENFIRFSKSLGLPENHIVFPVPIDQCIDG
notes: also called Lcn2 mutein
As for B7, the IC50 in test [1] was 0.11 nM. For the same molecule, the Kd in test [2] was 0.61 nM; in test [4] it was 0.64 nM. For the same molecule, the “IC50 of neutralization … by flow cytometry” value in test [3] is 31 nM.

B8: lipocalin mutein of SEQ ID NO: 14, linked to PEG40 (designed binder)
chain: QDSTSDLIPAPPLSKVPLQQNFQDNQFHGKWYVVGLAGNEVLREDKDPMKMWATIYELEEDKSYNVTIVMFLAKKCEYLFQTFVPGCQPGEFTLGDIKSSPGRTSGLVRVVSTNYNQHAMVFFKTVWQNREVFWITLYGRTKELTSELKENFIRFSKSLGLPENHIVFPVPIDQCIDG
modifications: branched 40k PEG-maleimide on the free Cys at position 87
notes: hNGAL mutein with Ser 87 back-mutated to Cys and PEGylated there
With B8, in test [1], the IC50 was determined as 1.17 nM. Besides, the Kd in test [2] was 1.36 nM; in test [4], 2.18 nM. For the same molecule, the “IC50 of neutralization … by flow cytometry” value in test [3] came to 25 nM.

B9: lipocalin mutein of SEQ ID NO: 5 (designed binder)
chain: QDSTSDLIPAPPLSKVPLQQNFQDNQFHGKWYVVGAAGNSLLREDKDPMKMWATIYELKEDKSYNVTRVNFGGKKCSYLIETFVPGSQPGEFTLGSIKSRPGATSVLVRVVSTNYNQHAMVFFKLVTQNREVFWITLYGRTKELTSELKENFIRFSKSLGLPENHIVFPVPIDQCIDG
notes: also called Lcn2 mutein
B9 registered an IC50 in test [1] of 10.8 nM. In addition, the Kd in test [2] was 6.83 nM; in test [4], 4.13 nM.

B10: lipocalin mutein of SEQ ID NO: 7 (designed binder)
chain: QDSTSDLIPAPPLSKVPLQQNFQDNQFHGKWYVVGLAGNRVLREDKDPQKMFATIYELKEDKSYNVTGVDFRTKKCLYSIGTFVPGSQPGEFTLGVIKSQPGWTSYLVRVVSTNYNQHAMVFFKTVWQNREVFWITLYGRTKELTSELKENFIRFSKSLGLPENHIVFPVPIDQCIDG
notes: also called Lcn2 mutein
In test [1], B10 returned an IC50 of 1.3 nM. In addition, the Kd in test [2] was found to be 0.22 nM; in test [4], 0.48 nM. Further, the “IC50 of neutralization … by flow cytometry” value in test [3] came to 79 nM.

B11: lipocalin mutein of SEQ ID NO: 3 (designed binder)
chain: QDSTSDLIPAPPLSKVPLQQNFQDNQFHGKWYVVGVAGNGLLREDKDPLKMHATIYELKEDKSYNVTRVLFVRKKCRYYISTFVPGSQPGEFTLGRIKSEPGRTSFLVRVVSTNYNQHAMVFFKMVWQNREVFWITLYGRTKELTSELKENFIRFSKSLGLPENHIVFPVPIDQCIDG
notes: also called Lcn2 mutein
Take B11: the 50% inhibitory concentration (IC50) in test [1] is 0.38 nM. The results for the dissociation constant (Kd) in test [2] and in test [4] were 0.59 nM and 0.84 nM, respectively.

B12: lipocalin mutein of SEQ ID NO: 2 (designed binder)
chain: QDSTSDLIPAPPLSKVPLQQNFQDNQFHGKWYVVGTAGNSILREDKDPQKMWATIYELKEDKSYNVTRVFFEGKKCRYVIETFVPGSQPGEFTLGKIKSAPGGTSILVRVVSTNYNQHAMVFFKVVWQNRELFWITLYGRTKELTSELKENFIRFSKSLGLPENHIVFPVPIDQCIDG
notes: also called Lcn2 mutein
In the case of B12, in test [1], the IC50 worked out at 9 nM. Further, the Kd in test [2] was determined as 3.15 nM; in test [4], 2.12 nM. The “IC50 of neutralization … by flow cytometry” value in test [3] came out at 62 nM.
